Source: US20180333469A1 (PORTOLA PHARMACEUTICALS, published 2018)
Residue numbers refer to the chain shown, from its start. Blank lines part the entries; values can stand above or below the binder they belong to.

Key:
[1] = target: T1, tissue factor pathway inhibitor (TFPI) (UniProt P10646 29-304, limits assumed); assay: cell-based or functional assay
T1 sequence (looked up): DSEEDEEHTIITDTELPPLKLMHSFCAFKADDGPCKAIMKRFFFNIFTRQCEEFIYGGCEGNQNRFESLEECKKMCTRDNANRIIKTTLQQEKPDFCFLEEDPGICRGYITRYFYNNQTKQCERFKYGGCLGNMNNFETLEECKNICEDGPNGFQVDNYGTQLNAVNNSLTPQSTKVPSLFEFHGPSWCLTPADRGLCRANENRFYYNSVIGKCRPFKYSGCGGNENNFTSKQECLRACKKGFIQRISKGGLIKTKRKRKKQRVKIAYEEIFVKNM

factor V (fV) [2] = target: T2, factor V (fV) (UniProt P12259 29-2224); assay: SPR, Biacore 3000, CM-5 chip (Prep 1)
Experimental: (§1) A few major plasma proteins, including tissue factor pathway inhibitor (TFPI), antithrombin III (ATIII), α-2-macroglobulin, α-1-antitrypsin, factor VII (fVII), factor X (fX), prothrombin, and factor V (fV), were tested for their binding affinity to a wild-type factor Xa (fXa) and two individual preparations (Prep 1 and Prep 2) of the fXa derivative (SEQ ID NO: 3). The binding experiment was conducted with a Biacore® 3000 with the fXa derivative immobilized on a CM-5 sensor chip according to manufacturer's instruction.

α-2-macroglobulin [3] = target: T3, α-2-macroglobulin (UniProt P01023 24-1474); assay: SPR, Biacore 3000, CM-5 chip (Prep 1)
T3 sequence (looked up): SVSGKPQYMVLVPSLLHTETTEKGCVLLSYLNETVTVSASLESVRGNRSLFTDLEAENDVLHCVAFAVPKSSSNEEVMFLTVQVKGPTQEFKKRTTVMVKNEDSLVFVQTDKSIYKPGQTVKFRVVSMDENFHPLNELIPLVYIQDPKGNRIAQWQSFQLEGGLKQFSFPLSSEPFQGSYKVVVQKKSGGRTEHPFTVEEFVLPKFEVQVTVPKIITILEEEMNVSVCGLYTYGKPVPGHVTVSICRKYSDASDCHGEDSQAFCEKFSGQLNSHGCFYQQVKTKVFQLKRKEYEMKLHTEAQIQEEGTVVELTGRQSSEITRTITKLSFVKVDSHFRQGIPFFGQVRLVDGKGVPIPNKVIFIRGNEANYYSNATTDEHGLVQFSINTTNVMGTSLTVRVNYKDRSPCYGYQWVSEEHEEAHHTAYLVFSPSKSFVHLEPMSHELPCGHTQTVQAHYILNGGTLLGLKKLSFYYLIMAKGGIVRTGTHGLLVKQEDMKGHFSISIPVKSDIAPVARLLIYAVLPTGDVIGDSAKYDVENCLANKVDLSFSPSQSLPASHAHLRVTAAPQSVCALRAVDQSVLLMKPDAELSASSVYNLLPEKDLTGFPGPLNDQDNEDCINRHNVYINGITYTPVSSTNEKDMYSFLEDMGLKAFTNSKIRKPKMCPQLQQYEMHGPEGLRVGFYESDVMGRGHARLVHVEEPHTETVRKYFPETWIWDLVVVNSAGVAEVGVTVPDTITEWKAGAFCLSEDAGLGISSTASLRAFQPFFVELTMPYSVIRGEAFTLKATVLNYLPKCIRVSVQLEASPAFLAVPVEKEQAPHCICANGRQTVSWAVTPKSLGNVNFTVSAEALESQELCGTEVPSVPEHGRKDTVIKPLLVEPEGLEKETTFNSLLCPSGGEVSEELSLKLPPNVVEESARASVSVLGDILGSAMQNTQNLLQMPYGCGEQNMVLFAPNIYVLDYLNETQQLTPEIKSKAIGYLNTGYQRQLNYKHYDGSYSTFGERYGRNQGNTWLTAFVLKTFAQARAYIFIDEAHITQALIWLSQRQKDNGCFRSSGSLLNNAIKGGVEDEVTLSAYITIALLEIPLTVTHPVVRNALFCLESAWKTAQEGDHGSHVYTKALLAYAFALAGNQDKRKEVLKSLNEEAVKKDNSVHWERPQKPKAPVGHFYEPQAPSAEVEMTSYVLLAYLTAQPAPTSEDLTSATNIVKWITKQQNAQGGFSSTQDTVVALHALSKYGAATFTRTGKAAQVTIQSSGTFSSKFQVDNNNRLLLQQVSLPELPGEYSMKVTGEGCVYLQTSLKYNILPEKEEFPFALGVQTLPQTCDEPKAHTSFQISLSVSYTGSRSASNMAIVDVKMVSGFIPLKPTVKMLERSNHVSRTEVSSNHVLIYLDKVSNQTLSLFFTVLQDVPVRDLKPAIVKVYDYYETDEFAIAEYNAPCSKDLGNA
Experimental: as §1

α-1-antitrypsin [4] = target: T4, α-1-antitrypsin (UniProt P01009 25-418); assay: SPR, Biacore 3000, CM-5 chip (Prep 1)
Experimental: as §1

factor X (fX) [5] = target: T5, factor X (fX) (UniProt P00742 41-488); assay: SPR, Biacore 3000, CM-5 chip (Prep 1)
Experimental: as §1

prothrombin [6] = target: T6, prothrombin (UniProt P00734 44-622); assay: SPR, Biacore 3000, CM-5 chip (Prep 1)
Experimental: as §1

factor VII (fVII) [7] = target: T7, factor VII (fVII) (UniProt P08709 61-466); assay: SPR, Biacore 3000, fXa derivative immobilized on CM-5 chip
T7 sequence (looked up): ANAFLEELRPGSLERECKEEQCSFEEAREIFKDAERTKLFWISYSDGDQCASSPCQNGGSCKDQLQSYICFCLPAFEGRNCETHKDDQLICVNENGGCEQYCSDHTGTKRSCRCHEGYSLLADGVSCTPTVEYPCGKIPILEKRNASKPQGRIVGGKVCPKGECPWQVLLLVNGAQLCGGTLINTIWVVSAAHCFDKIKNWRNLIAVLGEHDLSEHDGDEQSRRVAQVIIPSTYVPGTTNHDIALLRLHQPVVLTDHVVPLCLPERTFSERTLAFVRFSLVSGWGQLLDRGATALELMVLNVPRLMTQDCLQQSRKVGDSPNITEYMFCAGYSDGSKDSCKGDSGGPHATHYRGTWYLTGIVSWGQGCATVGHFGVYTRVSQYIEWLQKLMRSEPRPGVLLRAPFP
Experimental: as §1

[8] = target: T1, tissue factor pathway inhibitor (TFPI); assay: Kd of fXa derivative-TFPI over Ki of TFPI-fXa, fXa chromogenic assay (FIG. 1C)
[9] = target: T1, tissue factor pathway inhibitor (TFPI); assay: Kd of fXa derivative-TFPI over Ki of TFPI-fXa, fXa chromogenic assay (FIG. 1D)
Experimental: The binding kinetics were determined using three different concentrations of the fXa derivative (0, 1 nM, and 5 nM) and escalating doses of TFPI, up to about 12 nM. fXa chromogenic activity was measured following a 2 hour incubation of fXa (1 nM). Residual fXa activity was measured by cleavage of the peptidyl substrate Spectrozyme-fXa (100 μM).

[10] = target: T1, tissue factor pathway inhibitor (TFPI); assay: competition in the fXa chromogenic activity assay: SEQ ID NO: 3 competes with fXa (0.5 nM) for TFPI (1.0 nM)
[11] = target: T1, tissue factor pathway inhibitor (TFPI); assay: competition in the fXa chromogenic activity assay: SEQ ID NO: 3 competes with fXa (1.0 nM) for TFPI (1.0 nM)
factor V (fV) [12] = target: T2, factor V (fV); assay: SPR, Biacore 3000, CM-5 chip
Experimental: as §1

antithrombin III (ATIII) = antithrombin III (ATIII) (UniProt P01008 33-464); assay: SPR, Biacore 3000, CM-5 chip
Experimental: as §1

α-2-macroglobulin [13] = target: T3, α-2-macroglobulin; assay: SPR, Biacore 3000, CM-5 chip
Experimental: as §1

α-1-antitrypsin [14] = target: T4, α-1-antitrypsin; assay: SPR, Biacore 3000, CM-5 chip
Experimental: as §1

factor VII (fVII) [15] = target: T7, factor VII (fVII); assay: SPR, Biacore 3000, CM-5 chip
Experimental: as §1

factor X (fX) [16] = target: T5, factor X (fX); assay: SPR, Biacore 3000, CM-5 chip
Experimental: as §1

prothrombin [17] = target: T6, prothrombin; assay: SPR, Biacore 3000, CM-5 chip
Experimental: as §1

T2 sequence (P12259 29-2224 limits assumed): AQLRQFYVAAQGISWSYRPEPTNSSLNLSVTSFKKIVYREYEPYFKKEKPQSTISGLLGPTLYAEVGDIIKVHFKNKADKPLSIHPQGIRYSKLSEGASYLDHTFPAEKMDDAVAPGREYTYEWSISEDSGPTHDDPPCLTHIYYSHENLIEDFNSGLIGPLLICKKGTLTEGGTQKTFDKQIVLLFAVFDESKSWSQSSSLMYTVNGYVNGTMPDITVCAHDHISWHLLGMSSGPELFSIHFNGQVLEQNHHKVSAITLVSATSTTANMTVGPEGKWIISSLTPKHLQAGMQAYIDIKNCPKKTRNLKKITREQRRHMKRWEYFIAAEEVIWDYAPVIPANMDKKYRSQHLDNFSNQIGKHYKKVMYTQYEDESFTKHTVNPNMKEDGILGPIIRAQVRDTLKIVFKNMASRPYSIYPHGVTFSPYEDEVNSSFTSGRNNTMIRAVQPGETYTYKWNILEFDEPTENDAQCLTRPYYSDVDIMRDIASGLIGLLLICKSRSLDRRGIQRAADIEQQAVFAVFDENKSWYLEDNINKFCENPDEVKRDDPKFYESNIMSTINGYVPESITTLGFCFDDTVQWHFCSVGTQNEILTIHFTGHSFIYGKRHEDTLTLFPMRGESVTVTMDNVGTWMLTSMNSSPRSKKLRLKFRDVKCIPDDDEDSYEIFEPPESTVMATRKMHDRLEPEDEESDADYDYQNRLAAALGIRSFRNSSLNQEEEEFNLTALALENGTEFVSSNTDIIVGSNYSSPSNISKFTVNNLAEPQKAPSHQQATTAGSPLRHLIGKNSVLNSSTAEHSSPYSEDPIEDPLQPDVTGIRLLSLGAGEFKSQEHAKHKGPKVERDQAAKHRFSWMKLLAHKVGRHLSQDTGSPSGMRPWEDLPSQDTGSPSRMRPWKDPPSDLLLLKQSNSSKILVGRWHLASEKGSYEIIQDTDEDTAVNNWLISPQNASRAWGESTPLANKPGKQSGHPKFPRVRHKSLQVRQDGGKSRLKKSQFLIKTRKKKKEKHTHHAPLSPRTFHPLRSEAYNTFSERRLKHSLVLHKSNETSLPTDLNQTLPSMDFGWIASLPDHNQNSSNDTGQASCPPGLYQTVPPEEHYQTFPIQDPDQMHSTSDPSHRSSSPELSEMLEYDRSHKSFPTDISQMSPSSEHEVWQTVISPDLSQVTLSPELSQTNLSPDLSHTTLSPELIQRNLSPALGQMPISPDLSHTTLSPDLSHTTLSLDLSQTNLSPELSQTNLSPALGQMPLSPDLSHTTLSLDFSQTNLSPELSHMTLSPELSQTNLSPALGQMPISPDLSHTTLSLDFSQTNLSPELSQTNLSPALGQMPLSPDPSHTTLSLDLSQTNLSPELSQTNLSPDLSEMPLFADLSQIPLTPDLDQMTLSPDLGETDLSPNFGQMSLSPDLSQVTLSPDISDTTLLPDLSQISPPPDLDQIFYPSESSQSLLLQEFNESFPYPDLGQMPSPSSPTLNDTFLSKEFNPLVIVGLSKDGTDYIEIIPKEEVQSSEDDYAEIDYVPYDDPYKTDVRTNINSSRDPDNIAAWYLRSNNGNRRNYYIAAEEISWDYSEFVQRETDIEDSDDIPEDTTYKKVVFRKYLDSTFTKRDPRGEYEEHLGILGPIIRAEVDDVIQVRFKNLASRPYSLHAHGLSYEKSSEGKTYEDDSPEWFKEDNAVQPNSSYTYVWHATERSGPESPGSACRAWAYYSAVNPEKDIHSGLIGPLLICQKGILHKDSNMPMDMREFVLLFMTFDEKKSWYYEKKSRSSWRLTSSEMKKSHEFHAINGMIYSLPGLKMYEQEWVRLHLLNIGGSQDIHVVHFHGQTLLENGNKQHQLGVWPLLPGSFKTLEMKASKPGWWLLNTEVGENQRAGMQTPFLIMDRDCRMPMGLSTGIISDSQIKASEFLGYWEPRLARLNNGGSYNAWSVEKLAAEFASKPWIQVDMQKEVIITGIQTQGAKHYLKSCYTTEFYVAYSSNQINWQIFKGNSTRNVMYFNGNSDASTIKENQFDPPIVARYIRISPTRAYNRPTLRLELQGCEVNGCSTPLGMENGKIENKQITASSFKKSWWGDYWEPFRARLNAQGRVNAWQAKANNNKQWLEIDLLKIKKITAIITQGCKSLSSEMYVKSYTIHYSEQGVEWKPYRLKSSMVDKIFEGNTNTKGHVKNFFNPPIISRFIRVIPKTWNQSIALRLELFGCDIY
T4 sequence (P01009 25-418 limits assumed): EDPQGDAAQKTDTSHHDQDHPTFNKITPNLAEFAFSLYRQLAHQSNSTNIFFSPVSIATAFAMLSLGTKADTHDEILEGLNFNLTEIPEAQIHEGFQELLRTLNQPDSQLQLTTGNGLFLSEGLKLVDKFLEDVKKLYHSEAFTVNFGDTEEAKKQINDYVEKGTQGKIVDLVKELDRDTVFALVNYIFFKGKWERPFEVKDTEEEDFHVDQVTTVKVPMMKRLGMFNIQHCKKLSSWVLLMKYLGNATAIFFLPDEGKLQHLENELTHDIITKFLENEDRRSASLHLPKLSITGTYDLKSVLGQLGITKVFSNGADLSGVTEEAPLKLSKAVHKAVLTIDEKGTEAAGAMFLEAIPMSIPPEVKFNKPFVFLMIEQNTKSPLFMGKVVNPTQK
antithrombin III (ATIII), sequence (P01008 33-464 limits assumed): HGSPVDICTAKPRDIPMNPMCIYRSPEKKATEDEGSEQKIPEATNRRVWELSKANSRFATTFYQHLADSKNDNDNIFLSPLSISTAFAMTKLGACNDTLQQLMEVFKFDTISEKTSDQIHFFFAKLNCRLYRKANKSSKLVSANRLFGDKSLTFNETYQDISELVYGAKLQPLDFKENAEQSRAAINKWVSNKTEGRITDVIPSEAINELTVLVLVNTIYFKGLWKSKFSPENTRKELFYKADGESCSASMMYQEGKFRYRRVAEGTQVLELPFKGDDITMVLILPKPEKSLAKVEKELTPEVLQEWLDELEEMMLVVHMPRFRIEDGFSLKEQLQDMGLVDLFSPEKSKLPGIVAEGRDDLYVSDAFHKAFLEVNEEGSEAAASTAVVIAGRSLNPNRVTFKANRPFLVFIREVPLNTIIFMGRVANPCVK

EC50 (read off the curve): fXa formed after 15 min by fVIIa/TF with 2.4 nM TFPI [1]: ~5 nM | binding result (factor V (fV) [2]): no binding | binding result (α-2-macroglobulin [3]): no binding | binding result (α-1-antitrypsin [4]): no binding | binding result (factor X (fX) [5]): no binding | binding result (prothrombin [6]): no binding | Kd (factor VII (fVII) [7]): 2780 nM | Ratio (Kd/Ki) [8]: 2.69 | Ratio (Kd/Ki) [9]: 4.97 | EC50 (read off the curve) [10]: ~2 nM | EC50 (read off the curve) [11]: ~2 nM
B1: fXa derivative (SEQ ID NO: 3) (other)
light: ANSFLFWNKYKDGDQCETSPCQNQGKCKDGLGEYTCTCLEGFEGKNCELFTRKLCSLDNGDCDQFCHEEQNSVVCSCARGYTLADNGKACIPTGPYPCGKQTLER
heavy: IVGGQECKDGECPWQALLINEENEGFCGGTILSEFYILTAAHCLYQAKRFKVRVGDRNTEQEEGGEAVHEVEVVIKHNRFTKETYDFDIAVLRLKTPITFRMNVAPACLPERDWAESTLMTQKTGIVSGFGRTHEKGRQSTRLKMLEVPYVDRNSCKLSSSFIITQNMFCAGYDTKQEDACQGDAGGPHVTRFKDTYFVTGIVSWGEGCARKGKYGIYTKVTAFLKWIDRSMKTRGLPKAKSHAPEVITSSPLK
notes: Prep 1 and Prep 2 are two preparations of the same molecule; also called fXa derivative Prep 1; fXa derivative Prep 2

binding result (factor V (fV) [12]): no binding | Kd (antithrombin III (ATIII)): 1060 to 13200 nM | binding result (α-2-macroglobulin [13]): no binding | binding result (α-1-antitrypsin [14]): no binding | Kd (factor VII (fVII) [15]): 2970 nM | binding result (factor X (fX) [16]): no binding | binding result (prothrombin [17]): no binding
B2: wild-type factor Xa (fXa) (enzyme)
light: ANSFLEEMKKGHLERECMEETCSYEEAREVFEDSDKTNEFWNKYKDGDQCETSPCQNQGKCKDGLGEYTCTCLEGFEGKNCELFTRKLCSLDNGDCDQFCHEEQNSVVCSCARGYTLADNGKACIPTGPYPCGKQTLER
heavy: B1 heavy with A185S
modifications: 11 gamma-carboxyglutamic acid residues (Gla) in the Gla domain, residues 1-45 of SEQ ID NO. 1
